According to the nanobody polyreactivity screen of Harvey et al. (2022):

Experiment: yeast display, Sf9 membrane polyspecificity reagent, FACS + sequencing; frameworks hold sequencing errors
In short: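 Nanobodies from a synthetic yeast display library (Saccharomyces cerevisiae BJ5465), induced 36–48 hours with galactose, were stained 1 hour at 4 °C with 10% biotinylated, detergent-solubilized Sf9 membrane reagent, enriched on streptavidin microbeads, then FACS-sorted. Anti-HA (expression) and streptavidin (reagent binding) fluorescence set low and high (top ~1%) gates. Polyreactivity labels come from the gate of origin. Genes were colony-PCR amplified, MiSeq 2 × 250 sequenced and filtered by CDR length.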

Sequence	polyreactivity (PSR sort gate)
QVQLVETGGGLVQAGGSLRLSCAASGRNYTYTMGWYRQAPGKERELVAAITYSGGSTYYADSVKGRFTISRDNAKNTVYLQMNSLKPEDTAVYYCAAVGRWPRYYYWGQGTQVTVSS	high polyreactivity
QVQLGESGGGLVQAGGSLRLSCASSGRILNINSMGWYRQAPGKERELVAAITWRGGRTFYADSVKGRFTISRDYAKNKVYFEMNSLKPEDTAVYYCAASSNTWYPTGYYWGQGSQVTVSS	high polyreactivity
QVQLVESGGGLVQAGGSLRLSCAASVFTFVRYSMGWYRQAPGKERELVAAISSGGRTYYADSVKGRFTISRDNAKYTVYLQMNSLKPEDTAVYYCAADTKFGYGYWGQGTQVNVSS	high polyreactivity
QVQLVESGGGLVHAGGRLRLSCAASGRIFYTYTMGWYSQAPGKERELVATITDGTRTNYADSVKGRFTISRDNAKITVYLQMTSLQPEDTAVYYCNAAGRWHDLYRINYDYWGQGTKVTVSS	low polyreactivity
QVQLVESGGGLVQAGGSLRLSCAASGSIFKYYAMGWYRQAPGKERELVAAISSGGITNYADSVKGRFTISRDNAKNTVYLQMNSLKPEDTAVYYCAARDYVRLGLYDYDYWGQGTQVTVSS	low polyreactivity
QVQLVESGGGLVQAGGSLRLSCAASGIIFGWYAMGWYRQAPGKERELVAAITWSGASTYYADSVKGRFTISRDNAKNTVYLQMNSLKPEDTAVYYCAAESVDNIYYGFDYWGQGTQVTVSS	high polyreactivity
QVQIVESGGGLVQAGGSLRLSCAASGRIIKGYAMGWYRQAPGKDMELVADISEDGGSTYYADSVKGRFTISRDNAKNTVYLQMNSLKTEDTAVYFCAAEYYVVNYAIGYDYWGQGTQVTVSS	low polyreactivity
QDQLVESGGGLVQAGGSLSLSCAASGRTLWRNTMGWYRQAPGKERELVAAITTRGGSTYYADSVKGRFTISRDTAKNTVYLQLNSLKPEDTAVYYCAARTYTGEGSGRFYYWGQGTQVTVSS	high polyreactivity
QVQLVESGGGLVQAGGSLRLSCAASGRIFTANAMGWYRQAPGKERELVAAISWRGGSTYYADSVKGRFTISRDNAKNSVYLQLNSLKPEDTAVYYCAAQRYAPYRYEYWGQGTHVTVSS	high polyreactivity
QVQLVESGGGLVQAGGSLRLSCAASGSIVGSNAMGWYRQAPGKERELVAAITWSDGSPYYADSVKGRFTISRDNAKNTVYLQMNRLKPEDTAVYVCATDYGYSWYDYWGQGTQVTVSS	low polyreactivity
QVQLVESGGGLVQAGGSLRLSCAASGRIFDDYDMGWYRQAPGKEREFVAAISTSGGSTYYADSVKGRFTISRDNAKNTVYLQMNSLKPEDTAVYYCATREYRYTGRQSRRYYWGQGTQVTVSS	high polyreactivity
QVQLVESGGGLVQAGGSLRLSCAASGFTFTPYGMGWYRQAPGKERELVAAITWNGGRTYYADSVKGRFTISRDNAKNTVYLQMNSLKPEDTAVYYCAAVAWSWQKRGYWGQGTQVTVSS	high polyreactivity
QVHLVESGGGLVQAGGSLRLSCAASGSTFGYNAMGWYRQAPGKVWELVAVISYSGGSPYYADSVKGRFTLSRDNAKNTVSLQMNSLKPADTAVYYCAKRALTSTRYRVKYDSWGQGTQVTVAS	high polyreactivity
QVQLVESGGGLVQAGGSLRLSCAASGRTFISNVIGWYRKAPGKERDLVAAITWRGGRTHYADSVKGRFTISRDNAKITVYLQMNSLKPEDTAVYYCAARYIPIQYPSYRTWGGYSWGQGTQVTVSS	high polyreactivity
QVQLVESGGGLDQAGGSLRLSCAASGSTFPSNAMGWYRQAPGNESEFVAAITFRGGRTYYADSVKGRFTISRDNAKNTVYLQMNSLKREDTAVYYCAAERWWYTVRGYGYWGQGTQVTVSS	high polyreactivity
QVKLVDSGGGLVQAGGSLRLSCAASGNIFYRYAMGWYRQAPGKERELVAAISGNSGNTYYADSVKGRFTISRDNAKNTVYLQMNSLKPDDTAVYYCAAERRAFGHYSWGQGTQVTVSS	high polyreactivity
QVQLVESGGGLVQAGGSLRLRCAAYGSIFDKNSMGWYRQAPGKERELVAAITRSGRSTYYADSVKGRFTISRDNAKNTVYLQMNSLKPEDTALYYCAADVWPRWGLYYWGQGTQVTVTS	high polyreactivity
QVQLVESGGGLVQAGGSLRLSCAASGRIFRYYAMGWYRQAPGKERELVASIARRGGSTNYADSVKGRFTISRDNAKNTVYVQMNSLKPEDTAVYYINAENWSPRGLYNYWGQGTQVTLSS	high polyreactivity
QVHLVESVGGLVQAGGSLRLSCTASGSTCVAYDMGWYRQAPGQERDLVAAITSSGGRTYYADSVKGRFKFSLDNAMNTVYLQMNSLKPEDTAVYYCAAVTHGRYDWGQGPQVTVSS	high polyreactivity
QVQLVESGGGLVQAGGSLRLSCAASGFISYTYMGWYRQAPGKERELVAGITGSGGSTYYADSVKGRFTISRDNAKNTVYLQMNILKPEDTAVYYCAAPRYLSYVRRYDYWGQGTQVTVSS	high polyreactivity
QVQLVESGGGLVQAGGSHRLSCAASGLTFYQYSMGWYRQAPGKERELVAAISKSAGSTYYADSVKGRFTISRDNAKNTVYLQMNSLKPEDTAVYYCAARVLRLRYDYWGQGTQVTVSS	high polyreactivity
QVQLVESGGGLVQAGGSLRLSCAASGGTFENYPMGWYRQAPGKERELVAAISSGGSTNYADSVKGRFTISRDNAKNTVYLQMNSLKPEDTAVYYCARYRVWGSNGHKLFHYDYWGQGTQVTVSS	low polyreactivity

Sequence	polyreactivity (PSR sort gate)
QVQLVESGGGLVQAGGSLRLSCAASGSTFYFYAMGWYRQAPGKERELVATITTRGGSTYYADSVKGRFTISRDHAKNTLDLQMNILKPEDTAVYYCAREAWYKSYSRIKFGYWGQGTQVTVSS	high polyreactivity
QVQLVESGGGLDQAGGSLRLSCAASGIIFRWYAMGWYRQAPGKERELVAAITASGGSTYYADSVKGRFTISRDNAKNTVYLQMNSLKPEDTAVYYCNKLRLANIQTDGYYYWGQGTQVTVSS	high polyreactivity
QVQLVESGGGLVQAGGSLRLSCAASGITFVHNVMGWYRQAPGKDRELVAAINSGGRTYYADSVKGRFTISRDNAKKTVYLQMNSLKPEDSAVYYCAALGDKRGGGHYWGQGTQVTVSS	high polyreactivity
QVQLVESGGCLVQAGGSLRLSCASSGSTFVRYTLGRYRQAPGKEREMVARISRTSSTNYADSVKGRFTISRDNAKNTVYLQMNSLKPEDTSVYYCNAREYYPTKSRFKYWGQGTQVTVSS	low polyreactivity
QVQLVESGGGLVQAGGSLRLSCAASGRIFFTNAMGWYRQAPGKERELVAAIRSSGGRTYYADSVKGRFTISRDNAKNTVYLQMNSLKPEDTAVYYCNVVDGRHISHYNYWGQGTQVTVSS	high polyreactivity
QVQLVESGGGLVQAGGSLRLSCAASGFTFVSYAMGWYRQAPGKERELVASITWTGGSTYYADSVKGRFTISRDYAKNTVYLQMNSLKPEDTAVYYCAAQQFYSGILGRYYWGQGTQVTVSS	low polyreactivity
QVQLVESGGGLVQAGGSLRLSCAASGIIFTSYAMGWYRQAPGKEREFVAGISVRGSSTYYADSVKGRFTISRDNAKNTVYLQMNSLKAEDTAVYYCAARTPSRYLYYEYDYWGQGTQVTVSS	low polyreactivity
QVQLVESGGGLVQAGGSLRLSCAASGSIFYIYAMGWYRKAPGKERELVASIDSGDSTNYADSVKGRFTISRDNAKNTVYLQMNSLKPEDTAVYYCNADTYSEITYYLYIGMDYWGQGTQVTVSS	low polyreactivity
QVKLVESGGGLVQAGGSLRLSCAASGGIFYFNPMGWYRQEPGKERELVASITWSGGNTYYADSVKGRFTISRDIAKNTVSLQMISLKPEDTAVYYCAAYYVTPIYYYWGQGTQVTVSS	low polyreactivity
QVQLVESGGGLVQAGGSLRLSCAASGRTFKSYTLGWYRQAPGKEREFVAAISSRGGNTYYADSVNGRFTISRDNAKNTVYLQMNSLKPEDTAVYYSAAESSFWSFPTYDYWGQGTQVTVSS	high polyreactivity
QVLLQESGGGLVQAGGSLRVSCAASGTISTDIRMGSYRLAPGKEREFVASIDGCSTTYYADSVKGRFTISRDNAKNTVYLQMNSLKPEDTAMYYCAAREATEYYLYYWGQGTQVTVSS	low polyreactivity
QVQLVESGGGLVQAGGSLRLSCAASGGTFRNYAMGWYRQAPGKERELVAAITTGTITNYADSVKGRFTISRDNAKNTVYLQLNSLKPEDTAVYYCNAGAFYSDPYVYWGQGNQVTVSS	low polyreactivity
QVQLVESGGGLVQAGGSLRLSCAASGRIFYYYPMGWYRQAPGKEMELVARITGLTGRTYYADSVKGRFTISRDNSKNTVYLHMHSLKPQDTAVYYCAATDRWSRLGYWGQGTQVTVSS	high polyreactivity
QVKLEESAGGLVQSGGSLRISCAASGSTLVSNAMGWYRQAPGQERELVADNSLSGGSTYYADSVKGRFTISRDYAKNTVYLQMNSLKPEDTEVYYCARVAPSSGVRWYYYWGQGTQVTVSS	high polyreactivity
QVQLVESGGGLVQAGGSLRLSCAASGRIFRVYTMGWYIQAPGKERELVAAISRGGTTTYADSVKGRFTISRDNAKNTVYLQMNSLKPEYTAVYYCNARGWFRGEFDYWGQGTQVTVSS	high polyreactivity
QVQLVESGGGLVQAGGSLRLSCAASGFTFSRYAMGWYRPAPGKERELVAAITSSGGSTYYADSVKGRFTISRDNAKNTVYLQMNSLKPEDTAVYYCAAGKYTASNGYGYWGQGTQVTVSS	high polyreactivity
QVQLVESGGGLVQAGGRLRLSCAASGRSYPPYAMGWYREAPGKERELLAAISYSGGSTYYADSVTGRFTISRDNAKNPVYLQMNSLKPEDTSVFYCNKDISREVGIRMDDWGQGTQVTVSS	high polyreactivity
QVQLVESGGGLVQAGGSLRLSCAASGSTLSQNAMGWYRQAPGKEREFVADISGSGDSTYYADSVKGRFTISRDNAKNTVYLQMNSLKPEDTAVYYCATPSPHVGLKWEYDYWGQVTQVTVSS	low polyreactivity
QVQLVESGGGLVQAGGSLRLSCAASGRIFGIYAMGWYRQAPGKERELVARITGGGSTNYADSVKGRFTISRDNAKNTVYLQMNSLKPEDTAVYYCAATVRRIVGNITRYDYWGQGTQVTVSS	low polyreactivity
QVHLVESGGGVVQAGGSLRLSCAASGRIFPSYDRGWYRQAPGKERELVATISSRGDSTYYADSVKGRFTISRDNAKNTVYLQMNSLKPEDTAVYYCAAERPFWEYDYWGQGTQVTVSS	low polyreactivity
QVQLVESGGGLVQAGGSLRLSCAASGRTFVTYAMGWYRQAPGKERELVAGISRRGGRTYYADSVKGRFTISRDNAKNTVYLQMNSLKPEDTAVYYCAAYDRITRYDYWGQGTQVTVSS	high polyreactivity
